Laboratory results: the supplement of paper PMC7877785
± gives the uncertainty stated by the source.

Assay: self-splicing fitness, log relative to wild type (ln ratio); higher = more splicing; Tetrahymena group I intron in knt gene, E. coli kanamycin selection, DiMSum; sequences stand for … in CUCUCU…GGAGGGAAAAGUUAUCAGGCAUGCACCUGGUAGCUAGUCUUUAAACCAAUAGAUUGCAUCGGUUUAAAAGGCAAGACCGUCAAAUUGCGGGAAAGGGGUCAACAGCCGUUCAGUACCAAGUCUCAGGGGAAACUUUGAGAUGGCCUUGCAAAGGGUAUGGUAAUAAGCUGACGGACAUGGUCCUAACCACGCAGCCAAGUCCUAAGUCAACAGAUCUUCUGUUGAUAUGGAUGCAGUUCACAGACUAAAUGUCGGUCGGGGAAGAUGUAUUCUUCUCAUAAGAUAUAGUCGGACCUCUCCUUAAUGGGAGCUAGCGGAUGAAGUGAUGCAACACUGGAGCCGCUGGGAACUAAUUUGUAUGCGAAAGUAUAUUGAUUAGUUUUGGAGUACUCGUGGUCG
How it was run: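 A randomised library covering all eight P1ex-region intron nucleotides was built with the intron in the knt kanamycin-resistance gene on pET-22b(+) and held in E. coli BL21(DE3). Cells were grown overnight at 37°C or 30°C on LB agar, with or without 25 μg/mL kanamycin, plus 100 μg/mL carbenicillin, 50 μM IPTG and 0.2% rhamnose, and pooled colonies were amplicon-sequenced on an Illumina HiSeq 2500. DiMSum fitness is the error-weighted combination of wild-type-normalised replicate fold changes, kanamycin versus none.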

Row | Sequence | self-splicing fitness (ln) (30 °C) | self-splicing fitness (ln) (37 °C)
1 | AAAAAGCAAUAUUACGCAGG | -2.42 ± 0.15 | -1.03 ± 0.14
2 | ACCCAGCAAUAUUACGGAGU | -3.7 ± 0.14 | -1.8 ± 0.1
3 | CAAUAGCAAUAUUACGAUAU | -4.72 ± 0.34 | -2.59 ± 0.22
4 | UAGCAGCAAUAUUACGGGCU | -3.39 ± 0.15 | -1.08 ± 0.12
5 | GUUGAGCAAUAUUACGUCUU | -1.53 ± 0.17 | -1.72 ± 0.2
6 | CCUGAGCAAUAUUACGGACC |  | -3.02 ± 0.43
7 | AAACAGCAAUAUUACGGAUG | -3.43 ± 0.16 | -3 ± 0.2
8 | AGCCAGCAAUAUUACGGCCG | -1.29 ± 0.11 | -0.262 ± 0.13
9 | CGGGAGCAAUAUUACGUAUG | -3.99 ± 0.35 | 
10 | AACGAGCAAUAUUACGGCAG |  | -3.6 ± 0.36
11 | GAAGAGCAAUAUUACGAUUA | -2.33 ± 0.23 | -1.85 ± 0.17
12 | CUGCAGCAAUAUUACGGCUU | -4.37 ± 0.36 | -2.23 ± 0.28
13 | AGCAAGCAAUAUUACGCAGA | -2.73 ± 0.22 | -2.05 ± 0.18
14 | GGCAAGCAAUAUUACGAUAG | -2.73 ± 0.19 | -2.18 ± 0.14
15 | UCCUAGCAAUAUUACGGUGG | -3.31 ± 0.15 | -2.32 ± 0.13
16 | UUCGAGCAAUAUUACGACUA | 0.544 ± 0.39 | -1.15 ± 0.24
17 | CGAUAGCAAUAUUACGCGCG | -2.92 ± 0.15 | -1.59 ± 0.14
18 | AAGAAGCAAUAUUACGUUGU | -3.2 ± 0.1 | -2.06 ± 0.11
19 | UCCUAGCAAUAUUACGCGUA | -2.95 ± 0.23 | -1.53 ± 0.14
20 | UCGAAGCAAUAUUACGAUGG | -0.763 ± 0.079 | -0.538 ± 0.13
21 | GUUAAGCAAUAUUACGCUUU | -4.08 ± 0.43 | -0.79 ± 0.22
22 | UUAAAGCAAUAUUACGAAAG | -1.66 ± 0.11 | -1.13 ± 0.17
23 | AAGGAGCAAUAUUACGAACG |  | -0.373 ± 0.27
24 | CGGCAGCAAUAUUACGGAAA | -3.57 ± 0.26 | -2.7 ± 0.18
25 | AAGCAGCAAUAUUACGUGUU | -3.31 ± 0.1 | -1.65 ± 0.089

Row | Sequence | self-splicing fitness (ln) (30 °C) | self-splicing fitness (ln) (37 °C)
26 | AACAAGCAAUAUUACGGUUA | -0.694 ± 0.058 | -0.134 ± 0.064
27 | GUGCAGCAAUAUUACGCGCC | -3.58 ± 0.4 | -1.95 ± 0.33
28 | GGGAAGCAAUAUUACGCCAU | -3.31 ± 0.25 | -0.83 ± 0.25
29 | GACUAGCAAUAUUACGACUU | 0.355 ± 0.06 | 0.58 ± 0.08
30 | AUAGAGCAAUAUUACGUGCA | -0.67 ± 0.069 | -0.162 ± 0.1
31 | AAGAAGCAAUAUUACGCAUG | -1.63 ± 0.13 | -0.526 ± 0.13
32 | AGGCAGCAAUAUUACGUCGG | -0.675 ± 0.08 | -0.941 ± 0.09
33 | UUAGAGCAAUAUUACGAUAC | -2.36 ± 0.36 | 
34 | AUGAAGCAAUAUUACGACCU | 0.893 ± 0.14 | 1.08 ± 0.15
35 | CUAGAGCAAUAUUACGAGAA | -2.62 ± 0.35 | -2.5 ± 0.45
36 | GACAAGCAAUAUUACGACCU | 0.335 ± 0.11 | -0.133 ± 0.12
37 | CUCAAGCAAUAUUACGGUUG | -3.38 ± 0.19 | -2.56 ± 0.22
38 | AAUAAGCAAUAUUACGGUGA | -1.18 ± 0.093 | -0.256 ± 0.11
39 | UGACAGCAAUAUUACGCAUC | -4 ± 0.27 | -1.28 ± 0.2
40 | UACCAGCAAUAUUACGAAUU | -2.55 ± 0.17 | -1.96 ± 0.2
41 | CUCAAGCAAUAUUACGCUUA | -2.62 ± 0.27 | -3.26 ± 0.37
42 | AGCAAGCAAUAUUACGUUGC | -3.69 ± 0.19 | -1.08 ± 0.16
43 | AAAAAGCAAUAUUACGGUCC | -0.603 ± 0.084 | 0.0637 ± 0.11
44 | UUUCAGCAAUAUUACGAAUA | -0.788 ± 0.15 | 0.446 ± 0.13
45 | CGGCAGCAAUAUUACGUAUG | -1.55 ± 0.048 | -0.303 ± 0.065
46 | UCAUAGCAAUAUUACGAGAC | -2.84 ± 0.31 | -2.03 ± 0.34
47 | GGAGAGCAAUAUUACGGGAA | -2.58 ± 0.33 | -2.58 ± 0.38
48 | ACUGAGCAAUAUUACGUUUC | -3.19 ± 0.27 | -2.6 ± 0.23
49 | GUACAGCAAUAUUACGGGCC | -3.94 ± 0.3 | -1.14 ± 0.15
